Experimental data taken from PMC7353165 (Molecular Biology of the Cell, 2020).

Molecular target: T1, WT-EphB1-YFP (mouse EphB1 C-terminal YFP-tagged) (mouse, UniProt Q8CBF3 18-984)
T1 sequence (looked up): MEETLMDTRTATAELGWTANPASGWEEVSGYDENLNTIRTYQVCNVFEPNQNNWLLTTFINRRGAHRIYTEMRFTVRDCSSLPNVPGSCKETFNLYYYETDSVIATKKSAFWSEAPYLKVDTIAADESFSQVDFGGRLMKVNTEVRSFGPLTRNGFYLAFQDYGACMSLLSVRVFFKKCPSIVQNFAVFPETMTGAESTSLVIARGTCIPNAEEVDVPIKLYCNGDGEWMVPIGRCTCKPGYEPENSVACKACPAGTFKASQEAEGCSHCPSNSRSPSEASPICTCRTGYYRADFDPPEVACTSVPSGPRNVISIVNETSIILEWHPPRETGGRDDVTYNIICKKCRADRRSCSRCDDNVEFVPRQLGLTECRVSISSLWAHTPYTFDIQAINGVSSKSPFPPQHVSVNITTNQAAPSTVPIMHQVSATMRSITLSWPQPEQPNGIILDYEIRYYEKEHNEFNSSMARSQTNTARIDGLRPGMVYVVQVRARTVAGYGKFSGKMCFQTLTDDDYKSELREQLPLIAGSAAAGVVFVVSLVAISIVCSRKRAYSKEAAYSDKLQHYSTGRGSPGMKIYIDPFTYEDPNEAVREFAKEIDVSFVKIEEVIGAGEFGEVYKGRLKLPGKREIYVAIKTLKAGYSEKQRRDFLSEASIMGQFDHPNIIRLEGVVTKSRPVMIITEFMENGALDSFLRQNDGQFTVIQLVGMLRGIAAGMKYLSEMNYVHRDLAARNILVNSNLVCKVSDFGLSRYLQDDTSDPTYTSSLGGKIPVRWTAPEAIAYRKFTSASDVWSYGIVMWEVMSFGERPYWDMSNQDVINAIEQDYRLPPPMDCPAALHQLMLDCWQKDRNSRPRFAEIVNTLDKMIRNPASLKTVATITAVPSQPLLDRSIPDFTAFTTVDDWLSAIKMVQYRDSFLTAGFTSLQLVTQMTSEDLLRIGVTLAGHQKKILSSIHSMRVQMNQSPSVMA
Experiment: FRET or BRET

B1: WT-Cav-1-CFP (C-terminal CFP-tagged Cav-1) (natural protein, UniProt Q03135 1-178, looked up)
chain: MSGGKYVDSEGHLYTVPIREQGNIYKPNNKAMADELSEKQVYDAHTKEIDLVNRDPKHLNDDVVKIDFEDVIAEPEGTHSFDGIWKASFTTFTVTKYWFYRLLSALFGIPMALIWGIYFAILSFLHIWAVVPCIKSFLIEIQCISRVYSIYVHTVCDPLFEAVGKIFSNVRINLQKEI
fold FRET intensity against EphB1^∆808-815-YFP with WT-Cav-1-CFP: 4 fold
